From patent US20240059799A1 (Pfizer, published 2024)
Substitutions are numbered along the chain they refer to.

B1: TL1A-0002 (antibody, human IgG1, kappa, V domains shown)
VH: QVQLVQSGAEVKKPGASVKVSCKASGYDFTYYGISWVRQAPGQGLEWMGWISTYNGNTHYARMLQGRVTMTTDTSTRTAYMELRSLRSDDTAVYYCARENYYGSGAYRGGMDVWGQGTTVTVSS
VL: EIVLTQSPATLSLSPGERATLSCRASQSVSSYLAWYQQKPGQAPRLLIYDASNRATGIPARFSGSGSGTDFTLTISSLEPEDFAVYYCQQRSNWPWTFGQGTKVEIKR
notes: human IgG1 effector-function-minimized / human kappa; also called parental TL1A-0002 antibody
B2: TL1A-0252 (antibody, V domains shown)
VH: B1 VH with G56T, R62P, M63S, R77S, N100S, Y107F
VL: DIQMTQSPSSLSASVGDRVTITCRASQSVSSYLAWYQQKPGKAPKLLIYDASNRATGVPSRFSGSGSGTDFTLTISSLQPEDFATYYCQQRSNWPWTFGQGTKVEIKR
notes: IgG1 effector-minimized/kappa
B3: TL1A-0253 (antibody, V domains shown)
VH: B1 VH with G56T, R62P, M63S, R77S, N100S, Y107H
VL: B2 VL
notes: IgG1 effector-minimized/kappa
B4: TL1A-0189 (antibody, human IgG1, kappa, V domains shown)
VH: B1 VH with R77S
VL: B2 VL
notes: IgG1 effector-minimized/kappa
B5: TL1A-0264 (antibody, human IgG1, kappa, V domains shown)
VH: B1 VH with F29Y, G56T, N57V, R62P, M63S, R77S, N100S, Y107F
VL: B2 VL
notes: human IgG1 effector-function-minimized / human kappa
B6: TL1A-0245 (antibody, V domains shown)
VH: B1 VH with G56D, R62Q, M63K, R77S, N100S, Y107H
VL: B2 VL
notes: IgG1 effector-minimized/kappa
B7: TL1A-0254 (antibody, V domains shown)
VH: B1 VH with N55G, R62P, M63S, R77S, N100S, Y107F
VL: B2 VL
notes: IgG1 effector-minimized/kappa
B8: TL1A-0265 (antibody, human IgG1, kappa, V domains shown)
VH: B1 VH with F29Y, G56T, N57V, R62P, M63S, R77S, N100S, Y107H
VL: B2 VL
notes: as for B5
B9: TL1A-0247 (antibody, V domains shown)
VH: B1 VH with G56T, N57G, R62P, M63S, R77S, N100S, Y107H
VL: B2 VL
notes: IgG1 effector-minimized/kappa
B10: TL1A-0258 (antibody, human IgG1, kappa, V domains shown)
VH: B1 VH with F29Y, G56D, R62Q, M63K, R77S, N100S, Y107F
VL: B2 VL
notes: as for B5
B11: TL1A-0246 (antibody, V domains shown)
VH: B1 VH with G56T, N57G, R62P, M63S, R77S, N100S, Y107F
VL: B2 VL
notes: IgG1 effector-minimized/kappa
B12: TL1A-0248 (antibody, V domains shown)
VH: B1 VH with G56T, N57G, R62Q, M63K, R77S, N100S, Y107F
VL: B2 VL
notes: IgG1 effector-minimized/kappa
B13: TL1A-0242 (antibody, V domains shown)
VH: B1 VH with G56D, R62P, M63S, R77S, N100S, Y107F
VL: B2 VL
notes: IgG1 effector-minimized/kappa
B14: TL1A-0257 (antibody, human IgG1, kappa, V domains shown)
VH: B1 VH with F29Y, G56D, R62P, M63S, R77S, N100S, Y107H
VL: B2 VL
notes: as for B5
B15: TL1A-0262 (antibody, human IgG1, kappa, V domains shown)
VH: B1 VH with F29Y, G56T, N57G, R62Q, M63K, R77S, N100S, Y107F
VL: B2 VL
notes: as for B5
B16: TL1A-0263 (antibody, human IgG1, kappa, V domains shown)
VH: B1 VH with F29Y, G56T, N57G, R62Q, M63K, R77S, N100S, Y107H
VL: B2 VL
notes: as for B5
B17: TL1A-0261 (antibody, human IgG1, kappa, V domains shown)
VH: B1 VH with F29Y, G56T, N57G, R62P, M63S, R77S, N100S, Y107H
VL: B2 VL
notes: as for B5
B18: TL1A-0249 (antibody, V domains shown)
VH: B1 VH with G56T, N57G, R62Q, M63K, R77S, N100S, Y107H
VL: B2 VL
notes: IgG1 effector-minimized/kappa
B19: TL1A-0255 (antibody, V domains shown)
VH: B1 VH with N55G, R62P, M63S, R77S, N100S, Y107H
VL: B2 VL
notes: IgG1 effector-minimized/kappa
B20: TL1A-0268 (antibody, V domains shown)
VH: B1 VH with F29Y, N55G, R62P, M63S, R77S, N100S, Y107F
VL: B2 VL
notes: IgG1 effector-minimized/kappa
B21: TL1A-0260 (antibody, human IgG1, kappa, V domains shown)
VH: B1 VH with F29Y, G56T, N57G, R62P, M63S, R77S, N100S, Y107F
VL: B2 VL
notes: as for B5
B22: TL1A-0256 (antibody, human IgG1, kappa, V domains shown)
VH: B1 VH with F29Y, G56D, R62P, M63S, R77S, N100S, Y107F
VL: B2 VL
notes: as for B5
B23: TL1A-0267 (antibody, human IgG1, kappa, V domains shown)
VH: B1 VH with F29Y, G56T, R62P, M63S, R77S, N100S, Y107H
VL: B2 VL
notes: as for B5
B24: TL1A-0042 (antibody, human IgG1, kappa, V domains shown)
VH: B1 VH
VL: B2 VL
notes: TL1A-0002 heavy chain with light chain CDRs grafted onto IGKV1-39*01; human IgG1 effector-function-minimized / human kappa
B25: TL1A-0251 (antibody, V domains shown)
VH: B1 VH with G56T, N57V, R62P, M63S, R77S, N100S, Y107H
VL: B2 VL
notes: IgG1 effector-minimized/kappa
B26: TL1A-0266 (antibody, human IgG1, kappa, V domains shown)
VH: B1 VH with F29Y, G56T, R62P, M63S, R77S, N100S, Y107F
VL: B2 VL
notes: as for B5
B27: TL1A-0243 (antibody, V domains shown)
VH: B1 VH with G56D, R62P, M63S, R77S, N100S, Y107H
VL: B2 VL
notes: IgG1 effector-minimized/kappa
B28: TL1A-0244 (antibody, V domains shown)
VH: B1 VH with G56D, R62Q, M63K, R77S, N100S, Y107F
VL: B2 VL
notes: IgG1 effector-minimized/kappa
B29: TL1A-0259 (antibody, V domains shown)
VH: B1 VH with F29Y, G56D, R62Q, M63K, R77S, N100S, Y107H
VL: B2 VL
notes: IgG1 effector-minimized/kappa

Biological target: T1, recombinant human TL1A (human, UniProt O95150 71-251)
T1 construct: The ELISA method says only 'recombinant TL1A' coated on plates; homotrimeric cytokine; also called TNFSF15; recombinant TL1A
T1 chain: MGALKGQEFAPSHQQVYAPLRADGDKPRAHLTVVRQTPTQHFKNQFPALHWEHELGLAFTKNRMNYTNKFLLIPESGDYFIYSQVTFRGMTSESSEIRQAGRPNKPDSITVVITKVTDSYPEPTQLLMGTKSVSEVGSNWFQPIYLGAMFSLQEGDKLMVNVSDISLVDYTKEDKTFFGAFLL
Assay: competition ELISA on coated recombinant TL1A; competitor biotinylated TL1A-0002
Protocol: For this competition ELISA assay procedure, 96-well high binding plates (Corning, product number 3590) were coated with 1 μg/mL recombinant TL1A in 100 μL/well in Phospate Buffered Saline (PBS) overnight at 4° C. Plates were then blocked in PBS+0.02% casein solution and washed with PBS+0.05% Tween-20 following standard ELISA protocol. […] Plates were washed with PBS+0.05% Tween-20 following standard ELISA protocol, and Streptavidin-HRP (Southern Biotech, product number 7100-05) diluted to 1:10,000 in assay buffer was added to plates and incubated for 25-30 minutes at room temperature. Next, the plates were washed with PBS+0.05% Tween-20 following standard ELISA protocol, and then TMB substrate (BioFX Laboratories, catalog number TMBW-0100-01) was added to plates. Reactions were stopped after approximately 5 minutes by adding 0.18 M ortho-phosphoric acid to each well and absorbance was read at 450 nm.

Binder | Bioactivity relative to TL1A-0002 | IC50
B1 | 1 fold | 5 nM
B2 | 2.7 fold | 13.5 nM
B3 | 2.7 fold | 13.4 nM
B4 | 0.8 fold | 3.8 nM
B5 | 3.1 fold | 15.8 nM
B6 | 3.2 fold | 16.2 nM
B7 | 9.2 fold | 46.3 nM
B8 | 1.7 fold | 8.7 nM
B9 | 2.4 fold | 12.2 nM
B10 | 2.2 fold | 10.9 nM
B11 | 2.6 fold | 13.3 nM
B12 | 3.2 fold | 16 nM
B13 | 3.2 fold | 16.2 nM
B14 | 1.9 fold | 9.5 nM
B15 | 1.4 fold | 7.3 nM
B16 | 1.2 fold | 6.2 nM
B17 | 1.1 fold | 5.6 nM
B18 | 3.1 fold | 15.7 nM
B19 | 7.6 fold | 38.4 nM
B20 | 9.6 fold | 48.2 nM
B21 | 1.3 fold | 6.8 nM
B22 | 2.3 fold | 11.6 nM
B23 | 1.3 fold | 6.8 nM
B24 | 0.8 fold | 4.2 nM
B25 | 3.2 fold | 16.2 nM
B26 | 1.3 fold | 6.6 nM
B27 | 2.9 fold | 14.5 nM
B28 | 3.5 fold | 17.6 nM
B29 | 3.7 fold | 18.4 nM
